{
  "source": "patent US20120034671A1",
  "about": "(RESEARCH FOUNDATION OF THE CITY UNIVERSITY OF NEW YORK, published 2012)",
  "molecular_target": "the molecule itself",
  "experiment": "self-association (homodimerization), observed with NMR (FIG. 3A-3C)",
  "data": [
    {"protein": "HP-7 polypeptide (SEQ ID NO: 7) (also called free HP-7) GEIWKQHEDALQKFEEALNQFEDLKQLGGSGCGSGGEIWKQHEDALQKFEEALNQFEDLKQL", "values": [
      {"measurement": "binding result", "result": "binds"}
    ]}
  ]
}
